In US20200292534A1 one finds Bmax and Kd data, which are given here for 55 molecules.

To fix the notation:
T1: NLpoly11S
T1 chain: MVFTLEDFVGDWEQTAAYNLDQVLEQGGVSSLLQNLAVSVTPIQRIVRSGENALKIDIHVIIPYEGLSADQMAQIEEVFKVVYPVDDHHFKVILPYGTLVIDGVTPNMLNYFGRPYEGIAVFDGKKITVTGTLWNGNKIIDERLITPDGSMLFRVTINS

For the assay, the target named is T1, NLpoly11S. Put plainly: luminescence complementation titration, one-site specific binding fit.
In the case of VEGYRLFKKES (modifications not checked) [array2.57], the Bmax came to 3370 and the Kd was 0.891 µM.
VEGYRLFEQAL (modifications not checked) [array2.104] showed a Bmax of 9880 and a Kd of 336 µM.
In the case of VTGYRLFQQIS (modifications not checked) [array2.13], the Bmax came out at 19400 and the Kd is 0.876 µM.
Taken in the same sequence, the figures for VTGYRLFQQES (modifications not checked) [array2.15] were 5200 and 7.49 µM.
Regarding VEGYRLFKKAL (modifications not checked) [array2.83], the Bmax is 20800 and the Kd stood at 1.59 µM.
Taken in the same sequence, the figures for VEGYRLFQEIS (modifications not checked) [array2.70] were 29200 and 230 µM.
For VEGYRLFQKIS (modifications not checked) [array2.64], in that order: 36500 and 0.586 µM.
Take VEGYRLFKEIL (modifications not checked) [array2.88]: the Bmax was 9830 and the Kd stood at 17.8 µM.
For VEGYRLFKEES (modifications not checked) [array2.63], in that order: 17300 and 220 µM.
The molecule VEGYRLFKEAS (modifications not checked) [array2.62] came in with a Bmax of 2380 and a dissociation constant Kd of 22.1 µM.
For VEGYRLFQKES (modifications not checked) [array2.66], in that order: 3490 and 2.87 µM.
For VTGYRLFQQAS (modifications not checked) [array2.14], the Bmax stood at 4350 and the Kd was 1.11 µM.
For VEGYRLFEKAS (modifications not checked) [array2.74], in that order: 3810 and 4.14 µM.
Taken in the same sequence, the figures for VEGYRLFKQES (modifications not checked) [array2.60] were 4350 and 10.6 µM.
Molecule VEGYRLFEQES (modifications not checked) [array2.78] had a Bmax of 39400 and a Kd of 252 µM.
Turning to VTGYRLFKKIS (modifications not checked) [array2.1], the Bmax is 135000 and the Kd is 0.0133 µM.
For VEGYRLFKQIS (modifications not checked) [array2.58], in that order: 21500 and 2.09 µM.
For VEGYRLFQEAS (modifications not checked) [array2.71], in that order: 44900 and 24 µM.
In turn, VEGYRLFKQIL (modifications not checked) [array2.85] showed a Bmax of 31400 and a Kd of 10.3 µM.
Taken in the same sequence, the figures for VTGYRLFKEAS (modifications not checked) [array2.8] were 3930 and 2.57 µM.
Taken in the same sequence, the figures for VEGYRLFKEIS (modifications not checked) [array2.61] were 5460 and 14.4 µM.
Taken in the same sequence, the figures for VEGYRLFKKIS (modifications not checked) [array2.55] were 42400 and 0.078 µM.
For VEGYRLFEKIS (modifications not checked) [array2.73], the Bmax turned out to be 22500 and the Kd was 2.15 µM.
As to VEGYRLFEKES (modifications not checked) [array2.75], the Bmax turned out to be 1170 and the Kd amounted to 2.97 µM.
Taken in the same sequence, the figures for VTGYRLFKQAS (modifications not checked) [array2.5] were 31000 and 1.95 µM.
For VTGYRLFQKIS (modifications not checked) [array2.10], the Bmax was 113000 and the equilibrium dissociation constant (Kd) came out at 0.0812 µM.
Taken in the same sequence, the figures for VEGYRLFEQIS (modifications not checked) [array2.76] were 18000 and 52.8 µM.
For VEGYRLFKQEL (modifications not checked) [array2.87], in that order: 1790 and 12.6 µM.
Taken in the same sequence, the figures for VEGYRLFKQAS (modifications not checked) [array2.59] were 2300 and 2.09 µM.
VEGYRLFQKAS (modifications not checked) [array2.65]: the Bmax stood at 10600 and the Kd stood at 1.93 µM.
For VEGYRLFKKAS (modifications not checked) [array2.56], in that order: 15900 and 0.641 µM.
For VTGYRLFKQES (modifications not checked) [array2.6], in that order: 5010 and 1.35 µM.
With VEGYRLFQKIL (modifications not checked) [array2.91], the Bmax came out at 50500 and the Kd came out at 2.08 µM.
VEGYRLFQKAL (modifications not checked) [array2.92]: the Bmax is 12300 and the Kd came out at 2.02 µM.
For VEGYRLFQQAS (modifications not checked) [array2.68], in that order: 3750 and 20 µM.
Taken in the same sequence, the figures for VEGYRLFQEAL (modifications not checked) [array2.98] were 2700 and 99.9 µM.
For the molecule VEGYRLFQQAL (modifications not checked) [array2.95], the Bmax stood at 38200 and the Kd came to 18.8 µM.
Molecule VEGYRLFKKEL (modifications not checked) [array2.84] yielded a Bmax of 7830 and a Kd of 1.41 µM.
In turn, VEGYRLFEKEL (modifications not checked) [array2.102] gave a Bmax of 962 and a Kd of 5.79 µM.
For VEGYRLFEEAS (modifications not checked) [array2.80], in that order: 383000 and 1420 µM.
For VEGYRLFQQIS (modifications not checked) [array2.67], in that order: 5220 and 8.14 µM.
For VEGYRLFEKIL (modifications not checked) [array2.100], in that order: 35000 and 10.6 µM.
VEGYRLFQKEL (modifications not checked) [array2.93] displayed a Bmax of 4090 and a Kd of 1.69 µM.
For VEGYRLFQQEL (modifications not checked) [array2.96], in that order: 105000 and 99.4 µM.
Taken in the same sequence, the figures for VEGYRLFQQIL (modifications not checked) [array2.94] were 2280 and 9.39 µM.
Regarding VEGYRLFKQAL (modifications not checked) [array2.86], the Bmax turned out to be 2300 and the dissociation constant Kd was found to be 2.27 µM.
For VTGYRLFKEES (modifications not checked) [array2.9], in that order: 1450 and 3.86 µM.
VEGYRLFKKIL (modifications not checked) [array2.82] returned a Bmax of 43400 and a Kd of 0.563 µM.
For VEGYRLFKEAL (modifications not checked) [array2.89], the Bmax stood at 5570 and the Kd was determined as 42.4 µM.
Taken in the same sequence, the figures for VTGYRLFQKAS (modifications not checked) [array2.11] were 80900 and 0.749 µM.
For the molecule VEGYRLFEKAL (modifications not checked) [array2.101], the Bmax was found to be 6370 and the Kd came to 12.6 µM.
Taken in the same sequence, the figures for VEGYRLFEQAS (modifications not checked) [array2.77] were 26900 and 48.3 µM.
Taken in the same sequence, the figures for VTGYRLFQKES (modifications not checked) [array2.12] were 17200 and 0.417 µM.
Molecule VTGYRLFKEIS (modifications not checked) [array2.7] registered a Bmax of 32000 and a Kd of 4.44 µM.
Taken in the same sequence, the figures for VEGYRLFKEEL (modifications not checked) [array2.90] were 12200 and 101 µM.

One may read the Kd as a measure of binding affinity in units of concentration.
